{"source": "paper doi:10.1101/2025.03.31.646278", "target": "HPV16 L1 pentamer (deletion construct of the major capsid protein L1) (human papillomavirus type 16)", "experiment": "cryo-EM structure"}
{"substance": "HPV16 L1 pentamer (deletion construct of the major capsid protein L1) (domain or fragment)", "values": [{"measurement": "stoichiometry N (protomers per pentamer)", "result": 5}]}
